Experimental findings from publication PMC7145421 are described below.

The assay has as its target PKR (endogenous) (UniProt Q03963). Put plainly: FLAG co-immunoprecipitation, western blot. The conditions noted are these: reference: FLAG-WT PACT; sites S246.

For the substance “PACT (FLAG-tagged wild type and mutant constructs) (from UniProt O75569) FLAG-S246A PACT”, the “binding against the reference” value is “weaker”.
